Assay results from patent US20260258137A1.

How the values were obtained:
[1] = target: human PD-L1 on CHO-K1 cells (CHO-K1/hPD-L1, Nanjing Genscript, M00543) (human) (UniProt Q9NZQ7); experiment: flow cytometry competition: biotin-hPD-1 binding to CHO-K1/hPD-L1 cells
[2] = target: human PD-L1 on CHO-K1 cells (CHO-K1/hPD-L1, Nanjing Genscript, M00543) (human) (UniProt Q9NZQ7); experiment: flow cytometry on CHO-K1/hPD-L1 cells
[3] = target: cynomolgus PD-L1 on CHO-K1 cells (CHO-K1/cynoPD-L1, Nanjing Genscript, M00573) (cynomolgus) (UniProt G7PSE7); experiment: flow cytometry on CHO-K1/cynoPD-L1 cells
Sequence of cynomolgus PD-L1 on CHO-K1 cells (CHO-K1/cynoPD-L1, Nanjing Genscript, M00573) (cynomolgus) (G7PSE7 entry or part of it limits assumed, one chain of several): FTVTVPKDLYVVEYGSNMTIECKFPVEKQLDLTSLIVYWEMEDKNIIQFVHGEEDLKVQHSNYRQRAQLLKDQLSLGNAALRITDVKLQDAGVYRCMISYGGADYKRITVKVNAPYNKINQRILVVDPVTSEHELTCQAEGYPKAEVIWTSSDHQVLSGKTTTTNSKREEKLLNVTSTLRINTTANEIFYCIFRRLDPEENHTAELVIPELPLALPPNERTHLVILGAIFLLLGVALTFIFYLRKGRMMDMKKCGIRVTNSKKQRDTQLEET

Sequence of human PD-L1 on CHO-K1 cells (CHO-K1/hPD-L1, Nanjing Genscript, M00543) (human) (Q9NZQ7 19-290, one chain of several): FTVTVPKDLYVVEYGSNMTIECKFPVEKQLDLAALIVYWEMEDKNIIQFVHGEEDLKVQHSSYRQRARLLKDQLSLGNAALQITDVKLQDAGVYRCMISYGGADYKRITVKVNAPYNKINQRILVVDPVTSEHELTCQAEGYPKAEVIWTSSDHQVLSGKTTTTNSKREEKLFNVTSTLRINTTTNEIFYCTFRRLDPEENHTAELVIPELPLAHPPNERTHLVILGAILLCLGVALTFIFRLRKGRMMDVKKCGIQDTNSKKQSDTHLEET

Maximum inhibition rate (%) [1]: 0.68%
MFI maximum value [2]: 305 MFI
MFI maximum value [3]: 935 MFI
Substance: isotype antibody hIgG1 iso
